From the RNAGym collection of RNA variant scans (doi:10.7554/elife.80360)

B1: CPEB3 Ribozyme (parent)
chain: GGGGGCCACAGCAGAAGCGUUCACGUCGCGGCCCCUGUCAGAUUCUGGUGAAUCUGCGAAUUCUGCUGU

Variants of: B1
Test: self-cleavage, relative activity (ratio to wild type); higher = more cleavage; co-transcriptional

| Variant | self-cleavage |
| --- | --- |
| GGGGGCCACAGCAGAAGCGUUCAUGUCGCGGCCUCUGUCAGAUUCUGGUGAAUCUGCGAAUUCUGCUGU | 0.858 |
| GGGGGCCACAGCAGAAGCGUUCAUGUCGCGGCCACUGUCAGAUUCUGGUGAAUCUGCGAAUUCUGCUGU | 0.263 |
| GGGGGCCACAGCAGAAGCGUUCAUGUCGCGGCCGCUGUCAGAUUCUGGUGAAUCUGCGAAUUCUGCUGU | 0.283 |
| GGGGGCCACAGCAGAAGCGUUCAUGUCGCGGCCCCUGUCAGAUUCUAGUGAAUCUGCGAAUUCUGCUGU | 0.869 |
| GGGGGCCACAGCAGAAGCGUUCAGGUCGCGGCCCCUGUCAGAUUCUGGUGAAUCUGCGAAUUCCGCUGU | 0.315 |
| GGGGGCCACAGCAGAAGCGUUCAGGUCGCGGCCCCUGUCAGAUUCUGGUGAAUCUGCGAAUUCGGCUGU | 0.338 |
| GGGGGCCACAGCAGAAGCGUUCAGGUCGCGGCCCCGGUCAGAUUCUGGUGAAUCUGCGAAUUCUGCUGU | 0.146 |
| GGGGGCCACAGCAGAAGCGUUCAGGUCGCGGCCCCCGUCAGAUUCUGGUGAAUCUGCGAAUUCUGCUGU | 0.171 |
| GGGGGCCACAGCAGAAGCGUUCAGGUCGCGGCCCCAGUCAGAUUCUGGUGAAUCUGCGAAUUCUGCUGU | 0.118 |
| GGGGGCCACAGCAGAAGCGUUCAUGUCGCGGCCCCUGUCAGUUUCUGGUGAAUCUGCGAAUUCUGCUGU | 0.654 |
| GGGGGCCACAGCAGAAGCGUUCAUGUCGCGGCCCCUGUCAGGUUCUGGUGAAUCUGCGAAUUCUGCUGU | 0.631 |
| GGGGGCCACAGCAGAAGCGUUCAGGUCGCGGCCCCUGUCAGAUUCUGGUGAAUCUGCCAAUUCUGCUGU | 0.248 |
| GGGGGCCACAGCAGAAGCGUUCAGGUCGCGGCCCCUGUCAGAUUCUGGUGAAUCUGCAAAUUCUGCUGU | 0.247 |
| GGGGGCCACAGCAGAAGCGUUCAGGUCGCGGCCCCUGUCAGAUUCUGGCGAAUCUGCGAAUUCUGCUGU | 0.523 |
| GGGGGCCACAGCAGAAGCGUUCAGGUCGCGGCCCCUGUCAGAUUCUGGUGAAUCUGCGAAUUCUGCAGU | 0.368 |
| GGGGGCCACAGCAGAAGCGUUCAUGUCGCGGCCCCUGUCAGAUUCUGGUGAAUCUGGGAAUUCUGCUGU | 0.24 |
| GGGGGCCACAGCAGAAGCGUUCAUGUCGCGGCCCCUGUCAGAUUCUGGUGAAUCUGUGAAUUCUGCUGU | 0.244 |
| GGGGGCCACAGCAGAAGCGUUCAGGUCGCGGCCCCUGUCAGAUUCAGGUGAAUCUGCGAAUUCUGCUGU | 0.452 |
| GGGGGCCACAGCAGAAGCGUUCAGGUCGCGGCCCCUGUCAGAUUCGGGUGAAUCUGCGAAUUCUGCUGU | 0.471 |
| GGGGGCCACAGCAGAAGCGUUCAGGUCGCGGCCCCUGUCAGAUUCCGGUGAAUCUGCGAAUUCUGCUGU | 0.505 |
| GGGGGCCACAGCAGAAGCGUUCAGGCCGCGGCCCCUGUCAGAUUCUGGUGAAUCUGCGAAUUCUGCUGU | 0.386 |
| GGGGGCCACAGCAGAAGCGUUCAUGUCGCGGCCCUUGUCAGAUUCUGGUGAAUCUGCGAAUUCUGCUGU | 0.579 |
| GGGGGCCACAGCAGAAGCGUUCAUGUCGCGGCCCCUGUCAGAUUCUGGUGAAUCUGCGACUUCUGCUGU | 0.254 |
| GGGGGCCACAGCAGAAGCGUUCAGGUCGCGGCCCCUGUCAGAUCCUGGUGAAUCUGCGAAUUCUGCUGU | 0.348 |
| GGGGGCCACAGCAGAAGCGUUCAGGUCGCGGCCCCUGUCAGAUACUGGUGAAUCUGCGAAUUCUGCUGU | 0.514 |
| GGGGGCCACAGCAGAAGCGUUCAUGUCGCGGCCCCUUUCAGAUUCUGGUGAAUCUGCGAAUUCUGCUGU | 0.251 |

| Variant | self-cleavage |
| --- | --- |
| GGGGGCCACAGCAGAAGCGUUCAUGUCGCGGCCCCUGUCAGAUUCUGGUGAAUAUGCGAAUUCUGCUGU | 0.561 |
| GGGGGCCACAGCAGAAGCGUUCAUGUCGCGGCCCCUGUCAGAUUCUGGUGAAUUUGCGAAUUCUGCUGU | 0.808 |
| GGGGGCCACAGCAGAAGCGUUCAUGUCGCGACCCCUGUCAGAUUCUGGUGAAUCUGCGAAUUCUGCUGU | 0.316 |
| GGGGGCCACAGCAGAAGCGUUCAUGUCGCGUCCCCUGUCAGAUUCUGGUGAAUCUGCGAAUUCUGCUGU | 0.271 |
| GGGGGCCACAGCAGAAGCGUUCAGGUCGCGGCCCCUGGCAGAUUCUGGUGAAUCUGCGAAUUCUGCUGU | 0.215 |
| GGGGGCCACAGCAGAAGCGUUCAGGUCGCGGCCCCUGCCAGAUUCUGGUGAAUCUGCGAAUUCUGCUGU | 0.413 |
| GGGGGCCACAGCAGAAGCGUUCAUGUCGCGGCCCCUGUCAGAUUCUGGUGCAUCUGCGAAUUCUGCUGU | 0.782 |
| GGGGGCCACAGCAGAAGCGUUCAGGUCGCGGCCCCUGUCAGAUUCUGGUGAAUCUUCGAAUUCUGCUGU | 0.299 |
| GGGGGCCACAGCAGAAGCGUUCAGGUCGCGGCCCCUGUCAGAUUCUGGUGAAUCUGCGAAUACUGCUGU | 0.27 |
| GGGGGCCACAGCAGAAGCGUUCAGGUCGCGGCCCCUGUCAGAUUCUGGUGAAUCUGCGAAUGCUGCUGU | 0.203 |
| GGGGGCCACAGCAGAAGCGUUCAUGUCGCGGCCCCUGUCAGAUUAUGGUGAAUCUGCGAAUUCUGCUGU | 0.743 |
| GGGGGCCACAGCAGAAGCGUUCAUGUCGCGGCCCCUGUCAGAUUGUGGUGAAUCUGCGAAUUCUGCUGU | 0.776 |
| GGGGGCCACAGCAGAAGCGUUCAUCUCGCGGCCCCUGUCAGAUUCUGGUGAAUCUGCGAAUUCUGCUGU | 0.105 |
| GGGGGCCACAGCAGAAGCGUUCAUAUCGCGGCCCCUGUCAGAUUCUGGUGAAUCUGCGAAUUCUGCUGU | 0.212 |
| GGGGGCCACAGCAGAAGCGUUCAGGUCGCGGCCCCUGUCAGAUUCUGGUGAAUCUGCGAAUUCUACUGU | 0.26 |
| GGGGGCCACAGCAGAAGCGUUCAGGUCGCGGCCCCUGUCAGACUCUGGUGAAUCUGCGAAUUCUGCUGU | 0.309 |
| GGGGGCCACAGCAGAAGCGUUCAGGUCGCGGCCCCUGUCAGAAUCUGGUGAAUCUGCGAAUUCUGCUGU | 0.348 |
| GGGGGCCACAGCAGAAGCGUUCAUGUCGCGGCGCCUGUCAGAUUCUGGUGAAUCUGCGAAUUCUGCUGU | 0.294 |
| GGGGGCCACAGCAGAAGCGUUCAUGUCGCGGCACCUGUCAGAUUCUGGUGAAUCUGCGAAUUCUGCUGU | 0.465 |
| GGGGGCCACAGCAGAAGCGUUCAUGUCGCGGCUCCUGUCAGAUUCUGGUGAAUCUGCGAAUUCUGCUGU | 0.856 |
| GGGGGCCACAGCAGAAGCGUUCAGGUCGCGGCCCCUGUCAGAUUCUGGUGAAUCUGCGAAGUCUGCUGU | 0.306 |
| GGGGGCCACAGCAGAAGCGUUCAGGUCGCGGCCCCUGUCAGAUUCUGGUGAAUCUGCGAACUCUGCUGU | 0.284 |
| GGGGGCCACAGCAGAAGCGUUCAGGUCGCGGCCCCUGUCAGAUUCUGGUGAAUCUGCGAAAUCUGCUGU | 0.173 |
| GGGGGCCACAGCAGAAGCGUUCAUGUCGCUGCCCCUGUCAGAUUCUGGUGAAUCUGCGAAUUCUGCUGU | 0.199 |
| GGGGGCCACAGCAGAAGCGUUCAUGUCGCAGCCCCUGUCAGAUUCUGGUGAAUCUGCGAAUUCUGCUGU | 0.389 |
| GGGGGCCACAGCAGAAGCGUUCAGGUCGCGGCCCCUGUCAGAUUCUGGUGAAACUGCGAAUUCUGCUGU | 0.339 |

| Variant | self-cleavage |
| --- | --- |
| GGGGGCCACAGCAGAAGCGUUCAGGUCGCGGCCCCUGUCAGAUUCUGGUGAAGCUGCGAAUUCUGCUGU | 0.177 |
| GGGGGCCACAGCAGAAGCGUUCAGGUCGCGGCCCCUGUCAGAUUCUGGUGAACCUGCGAAUUCUGCUGU | 0.235 |
| GGGGGCCACAGCAGAAGCGUUCAGGUCGCGGCCCCUGUCAGAUUCUGGUGAAUCUGCGAAUUCUGCUGC | 0.739 |
| GGGGGCCACAGCAGAAGCGUUCAUGUCGCGGCCCCUGUCAGAUUCUGGUGAAUCUGCGAAUUGUGCUGU | 0.328 |
| GGGGGCCACAGCAGAAGCGUUCAUGUCGAGGCCCCUGUCAGAUUCUGGUGAAUCUGCGAAUUCUGCUGU | 0.292 |
| GGGGGCCACAGCAGAAGCGUUCAUGUCGUGGCCCCUGUCAGAUUCUGGUGAAUCUGCGAAUUCUGCUGU | 0.143 |
| GGGGGCCACAGCAGAAGCGUUCAUGUCGGGGCCCCUGUCAGAUUCUGGUGAAUCUGCGAAUUCUGCUGU | 0.246 |
| GGGGGCCACAGCAGAAGCGUUCAUGUGGCGGCCCCUGUCAGAUUCUGGUGAAUCUGCGAAUUCUGCUGU | 0.189 |
| GGGGGCCACAGCAGAAGCGUUCAUGUUGCGGCCCCUGUCAGAUUCUGGUGAAUCUGCGAAUUCUGCUGU | 0.193 |
| GGGGGCCACAGCAGAAGCGUUCAGGUCGCGGCCCCUGUCAGAUUCUGGUGAAUCUGCGAAUUCUGCUAU | 0.725 |
| GGGGGCCACAGCAGAAGCGUUCAGGUCGCGGCCCCUGUCAGAUUCUGGUGAAUCUGCGAAUUCUGCUUU | 0.699 |
| GGGGGCCACAGCAGAAGCGUUCAUGUCGCGGGCCCUGUCAGAUUCUGGUGAAUCUGCGAAUUCUGCUGU | 0.211 |
| GGGGGCCACAGCAGAAGCGUUCAUGUCGCGGACCCUGUCAGAUUCUGGUGAAUCUGCGAAUUCUGCUGU | 0.414 |
| GGGGGCCACAGCAGAAGCGUUCAUGUCGCGGCCCCUGUCAGAUUCUGGUGACUCUGCGAAUUCUGCUGU | 0.791 |
| GGGGGCCACAGCAGAAGCGUUCAGGUCGCGGCCCCUGUCAGAUUCUGGUGAAUCGGCGAAUUCUGCUGU | 0.191 |
| GGGGGCCACAGCAGAAGCGUUCAGGUCGCGGCCCCUGUCAGAUUCUGGUGAAUCAGCGAAUUCUGCUGU | 0.36 |
| GGGGGCCACAGCAGAAGCGUUCAUGUCGCGGCCCCUGUCAUAUUCUGGUGAAUCUGCGAAUUCUGCUGU | 0.461 |
| GGGGGCCACAGCAGAAGCGUUCAUGUCGCGGCCCCUGUCAAAUUCUGGUGAAUCUGCGAAUUCUGCUGU | 0.394 |
| GGGGGCCACAGCAGAAGCGUUCAUGUCGCGGCCCCUGUCAGAUUCUGGUGAAUCUGCGAAUUCUGUUGU | 0.734 |
| GGGGGCCACAGCAGAAGCGUUCAUGUCGCGGCCCCUGUCAGAUUCUGGUGAAUCUGCGAAUUCUGGUGU | 0.346 |
| GGGGGCCACAGCAGAAGCGUUCAUGUCGCGGCCCCUGUCAGAUUCUGGUGAAUCUGCGAAUUCUGAUGU | 0.331 |
| GGGGGCCACAGCAGAAGCGUUCAUGUCGCGGCCCCUGUCUGAUUCUGGUGAAUCUGCGAAUUCUGCUGU | 0.317 |
| GGGGGCCACAGCAGAAGCGUUCAUGUCGCGGCCCCUGUCGGAUUCUGGUGAAUCUGCGAAUUCUGCUGU | 0.738 |
| GGGGGCCACAGCAGAAGCGUUCAUGUCGCGGCCCCUGUCAGAUUCUGGUGAAUCUGCGAAUUCUGCUGU | 0.844 |
| GGGGGCCACAGCAGAAGCGUUCAUGUCGCGGCCCCUGUCAGAUUCUGGUGAAUCUGCGCAUUCUGCUGU | 0.281 |
| GGGGGCCACAGCAGAAGCGUUCAUGUCGCGGCCCCUGUCAGAUUCUGGUGAAUCUGCGGAUUCUGCUGU | 0.866 |
